Measured values published in publication PMC11621151.

Columns and labels:
Assay in all cases: SPR
[1] = target: human neonatal Fc receptor (FcRn) (human) (UniProt P55899)
[2] = target: rabbit neonatal Fc receptor (FcRn) (rabbit)
[3] = target: mouse neonatal Fc receptor (FcRn) (mouse) (UniProt Q61559)
[4] = target: monkey neonatal Fc receptor (FcRn) (monkey) (UniProt Q8SPV9)
[5] = target: rat neonatal Fc receptor (FcRn) (rat) (UniProt P13599)

Efgartigimod (domain or fragment) was tested, and the Kd [1] was 8.56 nM, the Kd [2] was 310 nM and the Kd [3] was 0.63 nM. For the same substance, the Kd [4] was 14.5 nM and the Kd [5] was 1.89 nM.
